Reference: publication PMC12507662 (Nature, 2025)

Molecular target: postfusion gB (ectodomain of wild type) (herpes simplex virus 1 (HSV-1), UniProt A1Z0P7)
Test: grating-coupled interferometry; gB immobilised by C-terminal Twin-Strep-tag on Strep-Tactin XT chip (400 pg mm^-2); 25 °C; 20 mM HEPES pH 8.0, 300 mM NaCl; waveRAPID tight binder protocol, 200 nM Nb1_gbHSV, regeneration with 3 M GuHCl
Conditions: both partners purified

B1: Nb1_gbHSV (VHH)
VHH: QVQLVESGGGSVQPGGSLRLSCAASASGRLSMSGALGWYRQVQGKSRELVATITDRSSTNYADSVKGRFTISIDDAENTMYLQMNSLKPEDTGVYYCNARWRGMNVWGKGTRVTVSS
notes: alpaca VHH from an immune library; Unlabelled form used for grating-coupled interferometry, cryo-EM with stabilized HSV-1 gB and plaque reduction; also called the nanobody; neutralizing nanobody; source: E. coli SHuffle Express, cytoplasmic, purified (Ni2+ chelate column, eluted by cleaving the tag with Ulp1p)
binding result: no binding (tested: 200 nM)
